Assay results reported in US20240247072A1 (KEYMED BIOSCIENCES, published 2024).

How the values were obtained:
[1] = biological target: T1, human CD70, full length, on CHO cells (CHO-human CD70-B07) (human, UniProt P32970 1-193); assay: flow cytometry, Fab on CHO-human CD70 cells
T1 construct: whole, on cells; Stably transfected CHO cells; also called CHO-CD70
T1 sequence (looked up): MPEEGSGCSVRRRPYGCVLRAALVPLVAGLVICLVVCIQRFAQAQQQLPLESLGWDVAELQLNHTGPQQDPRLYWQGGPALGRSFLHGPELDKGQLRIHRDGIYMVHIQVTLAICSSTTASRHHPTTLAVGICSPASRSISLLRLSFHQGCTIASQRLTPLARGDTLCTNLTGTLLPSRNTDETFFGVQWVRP
Protocol: The blank control cell CHO and stably-transfected cell line CHO-CD70 were prepared and added at 5×10⁴ cells/well into a 96-well plate respectively. 50 μL of Fab antibodies with different dilution gradients were added into each well and incubated at 4° C. for 60 minutes. The centrifuge was performed to discard the supernatant. The plate was washed with 0.5% BSA/PBS and added with 50 μL of a secondary antibody solution (Anti-human IgG F (ab′) 2-AF647, Jackson Immuno Research) and incubated at 4° C. for 45 minutes. The excess secondary antibody was washed off with 0.5% BSA. The PBS solution was added to resuspend cells for flow cytometry. The data was collected.

[2] = biological target: T2, recombinant trimeric protein of human CD70 extracellular region (human CD70 mIgG Fc (knob) / mouse IgG Fc … (human, UniProt P01863 98-330 = IgG part)); assay: BLI (Octet), biotin antigen on SA probe, Fab in solution
T2 construct: The ELISA and Octet texts say only 'recombinant CD70 protein' / 'CM352 antigen'; also called recombinant human CD70 protein; recombinant CD70 protein
T2 chain 1: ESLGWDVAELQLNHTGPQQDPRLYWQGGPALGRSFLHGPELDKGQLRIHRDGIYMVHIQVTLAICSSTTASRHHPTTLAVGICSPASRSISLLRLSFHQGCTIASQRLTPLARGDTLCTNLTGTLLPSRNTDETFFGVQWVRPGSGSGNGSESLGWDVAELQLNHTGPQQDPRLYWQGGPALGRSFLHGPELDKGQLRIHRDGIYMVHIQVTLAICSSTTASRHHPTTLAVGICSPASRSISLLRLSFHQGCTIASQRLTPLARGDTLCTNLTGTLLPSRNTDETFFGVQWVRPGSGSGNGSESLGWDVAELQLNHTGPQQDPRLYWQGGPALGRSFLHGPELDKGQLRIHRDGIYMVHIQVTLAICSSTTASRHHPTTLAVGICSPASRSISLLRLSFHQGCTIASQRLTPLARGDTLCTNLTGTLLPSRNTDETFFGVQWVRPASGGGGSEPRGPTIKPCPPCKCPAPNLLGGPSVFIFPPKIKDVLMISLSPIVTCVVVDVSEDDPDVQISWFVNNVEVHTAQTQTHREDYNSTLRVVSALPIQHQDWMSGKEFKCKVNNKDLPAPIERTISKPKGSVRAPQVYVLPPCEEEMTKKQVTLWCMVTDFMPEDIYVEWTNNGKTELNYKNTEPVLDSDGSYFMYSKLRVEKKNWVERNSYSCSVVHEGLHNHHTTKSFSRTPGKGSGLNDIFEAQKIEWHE
T2 chain 2: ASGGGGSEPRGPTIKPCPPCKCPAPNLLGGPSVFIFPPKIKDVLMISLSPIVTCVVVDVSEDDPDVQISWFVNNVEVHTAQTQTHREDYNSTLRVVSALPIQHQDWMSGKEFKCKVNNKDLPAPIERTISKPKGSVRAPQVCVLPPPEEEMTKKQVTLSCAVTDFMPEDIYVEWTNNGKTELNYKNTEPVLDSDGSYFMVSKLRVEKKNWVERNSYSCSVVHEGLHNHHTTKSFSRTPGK

[3] = biological target: T2, recombinant trimeric protein of human …; assay: competition ELISA, Fab titrated, human CD27 coated, biotin-CD70
Protocol: The next day, the plate was washed 3 times with PBS, added with 200 μL of 2% defatted dry milk/PBS, blocked at room temperature for 2 hours, and washed once with PBS, 50 μL of different dilution gradients of Fab antibodies were added and incubated at room temperature for 30 minutes. […] The plate was washed 3 times with PBST and PBS and dried by spinning. A secondary antibody solution Streptavidin-coupled horseradish peroxidase SA-HRP (BD bioscience, Cat. No: 6222697) was diluted with 0.5% BSA in a ratio of 1:8000. 100 μl of the diluent was added into each well and incubate at room temperature for 30 minutes. The plate was washed 3 times with PBST and PBS and dried by spinning. 100 μl of the color development solution (TMB solution, Sigma, Cat. No: T2885) was added into each well and protected from light at 37° C. for reaction. After the substrate developed moderately, 50 μl of 2M concentrated sulfuric acid solution was added into each well to terminate the reaction. The OD450 nm was determined by using an enzyme-linked detector within 30 minutes, and the data was collected.

[4] = biological target: T1, human CD70, full length, on CHO cells …; assay: flow cytometry, chimeric IgG on CHO-human CD70 cells
Protocol: Different cells in logarithmic growth phase were taken, blocked with 3% BSA for 30 minutes, and plated to a 96-well U-plate at 5×10⁴ cells/100 μL. The centrifuge was performed at 1100 rpm for 3 minutes. The supernatant was discarded and the cells were gently tapped to be loosening. 50 μL of gradient diluted antibody was added (antibody concentration: from 30 μg/mL, 3-fold dilution for 5 gradients) per well, and incubated at 4° C. for 1 hour. After incubation, 180 μL of 0.5% BSA was added to each well for washing 3 times. 30 μL/well of secondary antibody AlexaFluro647 anti-human IgG (Jackson Immuno Research, Cat. No: 109-606-170) was added and incubated at 4° C. for 45 minutes. At the end of the incubation, each well was washed 3 times with 180 μL of 0.5% BSA and finally resuspended in 50 μL of PBS for iQue (Intellicyt, USA) assay.

[5] = biological target: T2, recombinant trimeric protein of human …; assay: competition ELISA, chimeric IgG titrated, CD27 coated, biotin-CD70, human pair
Protocol: The recombinant CD27 protein was coated at 1 μg/mL in a 96-well microtiter plate and incubated overnight at 4° C. The next day, the plate was washed 3 times with PBS, added with 200 μL of 2% defatted dry milk/PBS, blocked at room temperature for 2 hours, and washed once with PBS. The purified chimeric antibody was divided to 12 concentration gradients starting at 100 nM and diluted in a 1:3 gradient. […] of the antibody was added per well and incubated at room temperature for 30 minutes. […] The plate was washed 3 times with PBST and PBS and dried by spinning. A secondary antibody Streptavidin-coupled horseradish peroxidase SA-HRP (BD bioscience, cat. No: 6222697) was diluted with 0.5% BSA in a ratio of 1:8000. 100 μL of the diluent was added into each well and incubated at room temperature for 30 minutes. The plate was washed 3 times with PBST and PBS and dried by spinning. 100 μl of color development solution (TMB solution, Sigma, Cat. No: T2885) was added into each well and protected from light at 37° C. for reaction. After the substrate developed moderately, 50 μl of H₂SO₄ was added into each well to terminate the reaction. The OD450 nm was determined by using an enzyme-linked detector within 30 minutes, and the data was collected. The results were calculated by using Graph Pad Prism 5 software.

B1: 2B12 Fab antibody (Fab, V domains shown)
VH: QVQLQQSGPGLVQPSQSLSITCTVSGFSLTTYAVHWVRQSPGKGLEWLGVIWSTGITDYNAAFISRLSISKDNSKSQVFFKMNSLQSDDIAIYYCARNPYYGNLNAMDYWGQGTSVTVSS
VL: DIVLTQSPASLAVSLGQRATISCRASKSVDTSGYSFMHWYQQKPGQPPKLLIYLASNLESGVPARFSGSGSGTDFTLNIHPVEEEDAATYYCQHSRELPLTFGAGTKLELK
notes: Purified Fab from the mouse Fab phage display library
- EC50 [1]: 8.6 nM
- koff [2]: 0.000125 s⁻¹
- IC50 [3]: 0.29 nM

B2: 14C12 Fab antibody (Fab, V domains shown)
VH: EVQLQQSGPELVKPGASVKMSCKASGYTFTDYVIHWVKQKPGQGLEWIGYLHPYNDDTKYNEKFKGKATLTSDKSSSTAYMELSSLTSEDSAVYYCARRGYYDYAWFADWGQGTLVTVSA
VL: DIVLTQSPASLAVSLGQRATISCRASKSVSASGYTWIHWYQQKPRQAPKLLIYLASNLESGVPARFSGSGSGTDFTLNIHPVEEEDAATYYCQHSRELPPTFGGGTKLEIK
notes: as for B1
- EC50 [1]: 28 nM
- koff [2]: 0.000321 s⁻¹
- IC50 [3]: 0.79 nM

B3: 23A11 chimeric antibody (antibody, V domains shown)
VH: QVQLQQSGPGLVQPSQSLSITCTVSGFSLTTYAVHWVRQSPGKGLEWLGVIWSVGSTDYNAAFISRLSISKDNSKSQVFFKMNSLQADDTAIYYCARNIYYGNVYAMDYWGQGTSVTVSS
VL: DIVLTQSPASLAVSLGQRATISCRASKSVDASGYSFMHWYQQKAGQPPKLLIYLASNLESGVPARFSGRGSGTDFTLNIHPVEEGDAATYYCQHSRELPLTFGAGTKLEIK
- EC50 [4]: 11.9 nM
- IC50 [5]: 0.07 nM

B4: 3B2 Fab antibody (Fab, V domains shown)
VH: EVQLKQSGPGLVQPSQSLSITCTVSGFSLTTYGVHWVRQSPGKGLEWLGVIWSTGITDYNAAFISRLSISKDNSKSQVFFKMNSLQADDTAIYYCARNSYYGNLYVMDYWGQGTSVTVSS
VL: DIVLTQSPASLAVSLGQRATISCRASKSVSASGYNFMHWYQQKPGQPPKLLIYLASNLESGVPARFSGSGSGTDFTLNIHPVEEEDAATYYCQHSRELPLTFGAGTKLELK
notes: as for B1
- EC50 [1]: 14.2 nM
- koff [2]: 0.000325 s⁻¹
- IC50 [3]: 0.32 nM

B5: 27A3 Fab antibody (Fab, V domains shown)
VH: EVQLQESGPGLVQPSQSLSITCTVSGFSLTTYAVHWVRQSPGKGLEWLGVIWSTGITDYNADFISRLSISKDNSKSQVFFKMDSLQSDDTAIYFCARNHYYGNLNAMDYWGQGTSVTVSS
VL: DIVLTQSPASLAVSLGQRATISCRASKSVSTSGYSFMHWYQQKPGQPPKLLIYLASNLESGVPARFSGSGSGTDFTLNIHPVEEEDAATYYCQHSRELPYTFGGGTKLEIK
notes: as for B1
- EC50 [1]: 12.4 nM
- koff [2]: 0.000172 s⁻¹
- IC50 [3]: 0.51 nM

B6: 12A1 chimeric antibody (antibody, V domains shown)
VH: QVQLQQSGPGLVQPSQSLSITCTVSGFSLTTYAVHWVRQSPGKGLEWLGVIWSTGITDYNAAFISRLSISKDNSKSQVFFKMDSLQSDDTAIYFCARNPHYGNLNAMDYWGQGTSVTVSS
VL: DIVLTQSPASLAVSLGQRATISCRASKSVSASGYTWMHWYQQKPGQAPKLLIYLASNLESGVPARFSGSGSGTDFTLNIHPVEEEDAATYYCQHSRELPPTFGGGTKLEIK
- EC50 [4]: 7.55 nM
- IC50 [5]: 0.12 nM

B7: 23A11 Fab antibody (Fab, V domains shown)
VH: QVQLQQSGPGLVQPSQSLSITCTVSGFSLTTYAVHWVRQSPGKGLEWLGVIWSVGSTDYNAAFISRLSISKDNSKSQVFFKMNSLQADDTAIYYCARNIYYGNVYAMDYWGQGTSVTVSS
VL: DIVLTQSPASLAVSLGQRATISCRASKSVDASGYSFMHWYQQKAGQPPKLLIYLASNLESGVPARFSGRGSGTDFTLNIHPVEEGDAATYYCQHSRELPLTFGAGTKLEIK
notes: as for B1
- EC50 [1]: 15.6 nM
- koff [2]: 0.000403 s⁻¹
- IC50 [3]: 0.5 nM

B8: 32D1 Fab antibody (Fab, V domains shown)
VH: EVQLQQSGPELVKPGASLKMSCKASGYTFTDYVIHWVKQKPGQGLEWIGYLHPYNDDTKYNEKFKGKATLTSDKSSSTAYMELNSLTSEDSAVYYCARRGYYDYAWFADWGQGTLVTVSA
VL: DIVLTQSPASLAVSLGQRATISCKASKSVSASGYTWMHWYQQKPGQAPKLLIYLASNLESGVPARFSGSGSGTDFTLNIHPVEEEDAATYYCQHSRELPPTFGGGTKLEIK
notes: as for B1
- EC50 [1]: 8.1 nM
- koff [2]: 0.00183 s⁻¹
- IC50 [3]: 2.26 nM

B9: 12A1 Fab antibody (Fab, V domains shown)
VH: QVQLQQSGPGLVQPSQSLSITCTVSGFSLTTYAVHWVRQSPGKGLEWLGVIWSTGITDYNAAFISRLSISKDNSKSQVFFKMDSLQSDDTAIYFCARNPHYGNLNAMDYWGQGTSVTVSS
VL: DIVLTQSPASLAVSLGQRATISCRASKSVSASGYTWMHWYQQKPGQAPKLLIYLASNLESGVPARFSGSGSGTDFTLNIHPVEEEDAATYYCQHSRELPPTFGGGTKLEIK
notes: as for B1
- EC50 [1]: 17.7 nM
- koff [2]: 0.000317 s⁻¹
- IC50 [3]: 1.88 nM
